The target in test [1] is T1, mouse FcγRIV (mouse, UniProt A0A0B4J1G0 21-203).
T1 construct: bought; also called mFcgRIV
T1 sequence: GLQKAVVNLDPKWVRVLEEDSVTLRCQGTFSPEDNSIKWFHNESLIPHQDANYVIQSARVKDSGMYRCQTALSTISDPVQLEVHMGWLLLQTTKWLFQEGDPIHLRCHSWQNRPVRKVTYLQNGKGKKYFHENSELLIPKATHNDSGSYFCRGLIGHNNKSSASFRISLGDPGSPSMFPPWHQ
Description: SPR pH7.4. Details: unit not given here.

The target in test [2] is T2, mouse FcγRI (mouse, UniProt P26151 25-297).
T2 construct: bought; also called mFcgRI
T2 sequence (looked up): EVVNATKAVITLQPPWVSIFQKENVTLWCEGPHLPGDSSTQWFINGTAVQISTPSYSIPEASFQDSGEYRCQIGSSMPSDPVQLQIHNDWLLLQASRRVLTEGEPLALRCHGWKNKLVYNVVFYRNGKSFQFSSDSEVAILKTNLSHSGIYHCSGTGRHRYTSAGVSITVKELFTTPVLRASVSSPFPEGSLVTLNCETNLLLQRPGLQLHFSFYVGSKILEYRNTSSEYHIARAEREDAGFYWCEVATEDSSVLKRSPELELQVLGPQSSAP
Description: SPR pH7.4. More on the design: unit not given here.

Test [3] has as its target T3, mouse FcγRIII (mouse, UniProt P08508 31-215).
T3 construct: bought; also called mFcgRIII
T3 sequence (looked up): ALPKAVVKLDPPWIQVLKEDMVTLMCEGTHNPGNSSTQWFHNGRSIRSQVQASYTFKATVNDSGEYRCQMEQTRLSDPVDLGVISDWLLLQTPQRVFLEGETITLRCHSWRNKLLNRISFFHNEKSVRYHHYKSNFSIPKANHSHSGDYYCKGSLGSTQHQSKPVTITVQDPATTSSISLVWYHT
As to the kind of experiment: SPR pH7.4. More on the design: unit not given here.

In test [4] the target is T4, mouse FcγRIIb (mouse, UniProt P08101 40-217, limits assumed).
T4 construct: bought; also called mFcgRIIb; mFcgRII
T4 sequence (looked up): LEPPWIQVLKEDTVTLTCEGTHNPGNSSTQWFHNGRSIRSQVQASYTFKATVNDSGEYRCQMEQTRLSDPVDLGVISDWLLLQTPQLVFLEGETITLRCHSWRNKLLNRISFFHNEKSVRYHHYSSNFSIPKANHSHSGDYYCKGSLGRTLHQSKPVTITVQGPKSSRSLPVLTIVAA
As to the kind of experiment: SPR pH7.4. Details: unit not given here.

In test [5] the target is T5, human FcRn (soluble, complexed with β2-microglobulin) (human, UniProt P61769 21-119). Description: SPR pH7.0.
The target in test [6] is T5, human FcRn (soluble, complexed with …). As to the kind of experiment: SPR pH7.0. The source holds these as a separate data set.
The target is the same in test [7]. Description: SPR pH7.0. This is another data set of the same source.
The target is the same in test [8]. Description: SPR pH7.0. The source holds these as a separate data set.
The target in test [9] is T1, mouse FcγRIV. As to the kind of experiment: SPR pH7.4.
Test [10] concerns the target T2, mouse FcγRI. Description: SPR pH7.4.
Test [11] has as its target T3, mouse FcγRIII. As to the kind of experiment: SPR pH7.4.
The target in test [12] is T4, mouse FcγRIIb. Description: SPR pH7.4.

Read-outs that look alike come from different tables or passages of the source.

For orientation: Kd means a measure of binding affinity in units of concentration.

T5 sequence (P61769 21-119, one chain of several): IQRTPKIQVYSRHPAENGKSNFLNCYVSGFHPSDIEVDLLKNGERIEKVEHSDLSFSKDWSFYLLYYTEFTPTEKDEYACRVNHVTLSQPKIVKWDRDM

B1: VH3/L(WT)-IgG1-F947 (antibody)
chain 1: QVQLQESGPGLVKPSETLSLTCAVSGHSISHDHAWSWVRQPPGEGLEWIGFISYSGITNYNPSLQGRVTISRDNSKNTLYLQMNSLRAEDTAVYYCARSLARTTAMDYWGEGTLVTVSSASTKGPSVFPLAPSSKSTSGGTAALGCLVKDYFPEPVTVSWNSGALTSGVHTFPAVLQSSGLYSLSSVVTVPSSSLGTQTYICNVNHKPSNTKVDKKVEPKSCDKTHTCPPCPAPELLGGPSVFLFPPKPKDVLYISRTPEVTCVVVDVSHEDPEVKFNWYVDGVEVHNAKTKPREEQYNSTYRVVSVLQPLHADWLNGKEYKCKVSNKALPAPIEKTISKAKGQPREPQVYTLPPSRDELTKNQVSLTCLVKGFYPSDIAVEWESNGQPENNYKTTPPVLDSDGSFFLYSKLTVDKSRWQQGNVFSCSVMHEALHYHVTQKSLSLSP
chain 2: not shown
In the case of B1, the binding amount in test [1] was found to be 279; in test [2], 329; in [3], 664; in test [4], 129; in [9], 242 RU; in test [10], 299 RU. Further, the binding amount in [11] came to 382 RU; in test [12], 117 RU. The equilibrium dissociation constant (Kd) in [5], in test [6], in test [7] and in [8] was 11 nM each time.

For the origin of these results see patent EP2698431B1 (Chugai Seiyaku Kabushiki Kaisha, dated 2020).
